Assay results taken from paper PMC5913134, “The IL-33-PIN1-IRAK-M axis is critical for type 2 immunity in IL-33-induced allergic airway inflammation” (Nature Communications, 2018).

Columns and labels:
[1] = test system: WT, PIN1 KO and IRAK-M KO mice; assay: IL-33-induced airway inflammation in mice; format: in vivo, mouse; conditions: for BALF TH2 cytokines (IL-4, -5 and -13): IL-33 intranasal
Experimental: Male mice in each group, 3-5 weeks old were anesthetized using Isoflurane. The mice were treated intranasal with 200ng/mice/day for four continues days. By the fifth day the mice were killed by CO2 suffocation, and bronchial alveolar lavage fluid (BALF) was extracted using PBS. The lungs were extracted and fixed using 10% para formaldehyde. Immunofluresence of slide sections was performed. Slides were analyzed using anti-PIN1 antibodies and anti-IRAK-M antibodies or IgG as control and were counterstained using DAPI. In some cases, cells obtained from BALF were cytospined and the cells were fixed and stained in the same manner. For staining of the cells, Diff-Quick (Diff-Quik) Staining Protocol were used. All animal work was carried out in compliance with the ethical regulations approved by the Animal Care Committee, Beth Israel Deaconess Medical Center, Boston, MA, USA. The permission was granted to perform animal experiments by the Institutional Animal Care and Use Committee at Beth Israel Deaconess Medical Center, Boston, MA, USA.

[2] = test system: CD3+ CD4+ T cells; assay: Lung CD3+ CD4+ T cells after IL-33 challenge; format: in vivo, mouse; conditions: IL-33 intranasal, sorted lung T cells, n=3
Experimental: Lungs were digested using Kollagenase D and dispase and the dendritic cells populations (CD11c^+ CD205^+ CD11b^+) were determined by staining the cells using the following antibodies: PE anti mouse CD11c (catalog number 117307), APC anti mouse CD205 (catalog number 138205), FITC anti mouse CD11b (catalog number 101205). For co stimulatory protein expression, FITC anti mouse CD40 (catalog number 124607), FITC anti mouse CD80 (catalog number 104705), FITC anti mouse CD86 (catalog number 105005) were used. […] Cells were analyzed using LSRII flow cytometer and FlowJo software. […]
Supplementary Figure 6. […] ( b) The indicated lungs were digested and the CD3+ CD4+ cells were monitored and cell sorted using APC-CD3 and FITC-CD4 antibodies respectively, for further analysis. […] (c) Sorted CD3+ CD4+ cells from the indicated mice after PBS and IL-33 challenge were analyzed for IL-13 and IL-5 expression (n=3).
(d) Quantification of figure 6E; Dendritic cell CD11b+ expression in WT, Pin1KO and IRAK-M KO mice lungs, either treated with IL-33 or PBS as before. (e) WT and IRAK-M KO mice were either treated with IL-33 or PBS, the lungs were digested and the CD11c+ cells were analyzed for the expression of costimulatory proteins CD40, CD80 and CD86. […]

[3] = test system: IRAK-M; assay: IRAK-M nuclear localization in DC2.4 cells; format: cell-based, C57BL/6; conditions: DC2.4 cells, after IL-33 induction
Experimental: Suppl em enta ry Figur e 3. a DAPI IR AK-M Pin1 Mergeb […]
Supplementary Figure 3. Pin1 targets IRAK-M and promotes its nuclear translocation upon IL-33 induction.
(a) Immunostaining for IRAK-M and Pin1 in DC2.4 cells before and after IL-33 treatment. ( b) DC2.4 cells were treated with IL-33 and subjected to nuclear/cytoplasmic fractionation, followed by Western blot for IRAK-M with actin as a cytoplasmic marker and Fox1 as a nuclear marker. C- cytoplasmic; N- Nuclear.
(c) Cytospin slides from BALF of the treated WT mice as indicated, were co stained for DC205 and IRAK-M.
(d) IRAK-M or its mutants S110E or P111A were stably expressed in DC2.4 cells and their localization and Pin1 localization were monitored by immunostaining. (e) GFP-IRAK-M were expressed in Pin1 KO MEFs either with or without RFP-Pin1 as indicated, and their localization was monitored. Scale = 50 µm.
(also on this page, place not known: Control +IL-33: b DAPIe MergeGFP RFP GFP- GFP-IRAK-M/ RFP MergeIRAK-M Pin1DAPI ControlIL-33 Mergec Supplementary Figure IRAK-M IRAK-M (b) IL-33 IRAK-M IRAK-M Pin1) […]

[4] = test system: naive CD4^+ cells co-cultured with BMDCs; assay: BMDC / naive CD4+ T cell co-culture TH2 polarization, IL-5 and IL-13 secretion; format: cell-based, C57 B6 mice; conditions: WT BMDC + naive CD4+ T cells, IL-33 50 ng/ml, 5 days
Experimental: Supplementary Figure 7. IRAK-M KO or Pin1 KO derived bone marrow dendritic cells attenuates Naïve TH2 cell differentiation upon IL-33 induction in co culture experiment. Naïve CD4+ T cells isolated from C57 B6 mice were cultured with or without IL-33 (50ng/ml) and BMDCs isolated from WT, IRAK-M KO (a) or Pin1 KO mice (b) in a 1:5 ratio for 5 days with no antigen being added. In some cases as indicated 5 µM of ATRA was added to the medium two days prior to T cell co culturing and during the experiment. Supernatants were analyzed for cytokines on day 5. The data were analyzed by a Student's two-tailed t test and the values are reported as mean ± standard errors of the means (SEM). *- statistical significance (P<0.05), **- significance (P<0.01).

B1: IL-33: Recombinant mouse IL-33 purchased from BioLegend (protein, UniProt Q8BVZ5 1-266, looked up)
Interleukin-33: MRPRMKYSNSKISPAKFSSTAGEALVPPCKIRRSQQKTKEFCHVYCMRLRSGLTIRKETSYFRKEPTKRYSLKSGTKHEENFSAYPRDSRKRSLLGSIQAFAASVDTLSIQGTSLLTQSPASLSTYNDQSVSFVLENGCYVINVDDSGKDQEQDQVLLRYYESPCPASQSGDGVDGKKLMVNMSPIKDTDIWLHANDKDYSVELQRGDVSPPEQAFFVLHKKSSDFVSFECKNLPGTYIGVKDNQLALVEEKDESCNNIMFKLSKI
- response (infiltrates, cell counts) ([1]; PIN1 KO mice, intranasal 200 ng/mice/day, 4 days): very mild responses
- BALF TH2 cytokines (IL-4, -5 and -13) ([1]; PIN1 KO or IRAK-M KO mice): dramatically attenuated
- BALF TH2 cytokines (IL-4, -5, -6 and -13) ([1]; PIN1 KO vs WT mice, IL-33 intranasal 200 ng/mice/day, 4 days): drastically lower
- BALF TH2 cytokines (IL-4, -5 and -13) ([1]; WT mice): high levels of TH2 cytokines
- lung inflammation ([1]; WT mice, intranasal 200 ng/mice/day, 4 days): moderate to severe inflammation and high levels of infiltrating cells, especially eosinophils
- lung inflammation and bronchial remodeling ([1]; WT mice, intranasal IL-33): severe lung inflammation and bronchial remodeling
- IRAK-M expression in lung cells ([1]; WT mice, intranasal IL-33, immunostaining): dramatically increased IRAK-M expression
- lung expression of Il6, Csf3, Cxcl2 and Ccl5 ([1]; WT mice, whole lung tissue, qRT-PCR): upregulated
- Il13 and -5 expression in CD3+ CD4+ T cells [2]: markedly induced expression
- IRAK-M nuclear localization [3]: also evident in the nucleus
- IL-5 and IL-13 secretion [4]: high levels of IL-5 and -13
